Source: US8932558B2, “Multi-subunit biological complexes for treatment of plaque-associated diseases” (Plaxgen Inc, priority 2007, dated 2015)

Tests used:
[1] = target: iron-loaded abeta42 templates (Homo sapiens, UniProt P05067); assay: Binding of proteins to iron-loaded abeta42 templates; conditions: SDS-PAGE
Source text: FIG. 46 illustrates an example involving the identification of proteins that bind to iron-loaded abeta42 templates. The iron-loaded abeta42 templates are combined with known and unknown cell extracts (CE) and subjected to CPA, as described herein. To determine which proteins successfully bind the templates, the final template complexes are suspended in denaturing sample buffer, boiled, and loaded into SDS-PAGE gel. The gels are then stained with coomassie blue or silver stain in order to visualize the binding proteins. […] In the negative control, no significant binding is observed when the proteins are incubated in the absence of the templates.
In experiments such as these, known and unknown cell extract proteins that are used for the complex formation with the aggregates are diluted in PBS to a 1 mg/ml concentration and stored at −70° C. as 50 μl aliquots. These samples are thawed on ice and centrifuged (13000 rpm, 15 min, 4° C.) to remove any precipitation. The supernatant containing soluble proteins is used to form complexes with the aggregates. Various proteins are screened against the iron loaded abeta42 aggregates for examining their binding. […] The proteins in the gels are detected using coomassie blue or silver stain (Owl silver stain, Pierce, Ill., USA). […]

[2] = tested on: iron loaded prion or abeta40 templates; format: binding
[3] = tested on: iron loaded abeta42 aggregates mixed with CE proteins; assay: Proteolysis of amyloid plaque complexes assembled on iron loaded abeta42 aggregates; format: biochemical; conditions: 20 ng protease, 37° C., 1 hr
Description: This example illustrates the use of the invention to evaluate the proteolytic degradation of the amyloid complexes. For example, iron loaded abeta42 aggregates are mixed with CE proteins, and the resulting template complexes are treated with five different serine proteases. More specifically, nine independent reactions are carried out with each containing 5.0 μg of the iron-loaded aggregates of abeta42 and 6.0 μg of the CE proteins. After incubation and washing, the complexes are suspended in 50 μl of PBS. The nine complexes are sub-divided into two groups, with six individual complexes comprising Group I and three complexes comprising Group II. In order to interrogate the role of the plasminogen (PLG) activation system, which is implicated in the catabolism of amyloid peptides as well as the pathobiology of amyloid diseases (Melchor J P et al, 2003; Van Nostrand W E et al, 1999; Kranenburg O, 2005), the Group II complexes are subjected to another cycle of binding with both PLG (0.5 μg) and BSA (0.5 μg) proteins. After binding and washing, the PLG and BSA bound plaques complexes are suspended in 50 μl of PBS.
For proteolysis analysis, five of the six Group I template complexes are incubated with 20 ng of each protease (plasnin, chymotrypsin, trypsin, proteinase K and urokinase). The remaining complex is used as a control without protease treatment. […]

iron-loaded abeta42 templates, sequence (P05067 672-713 limits assumed): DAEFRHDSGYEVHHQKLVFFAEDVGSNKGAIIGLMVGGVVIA

B1: chicken ovalbumin: chicken ovalbumin (protein, UniProt P01012 2-386, looked up)
Ovalbumin: GSIGAASMEFCFDVFKELKVHHANENIFYCPIAIMSALAMVYLGAKDSTRTQINKVVRFDKLPGFGDSIEAQCGTSVNVHSSLRDILNQITKPNDVYSFSLASRLYAEERYPILPEYLQCVKELYRGGLEPINFQTAADQARELINSWVESQTNGIIRNVLQPSSVDSQTAMVLVNAIVFKGLWEKAFKDEDTQAMPFRVTEQESKPVQMMYQIGLFRVASMASEKMKILELPFASGTMSMLVLLPDEVSGLEQLESIINFEKLTEWTSSNVMEERKIKVYLPRMKMEEKYNLTSVLMAMGITDVFSSSANLSGISSAESLKISQAVHAAHAEINEAGREVVGSAEAGVDAASVSEEFRADHPFLFCIKHIATNAVLFFGRCVSP
[1]
  Binding with iron-loaded abeta42 templates: no detectable binding

B2: STI: soybean trypsin inhibitor (protein, UniProt P01070 25-205, looked up)
Trypsin inhibitor A: DFVLDNEGNPLENGGTYYILSDITAFGGIRAAPTGNERCPLTVVQSRNELDKGIGTIISSPYRIRFIAEGHPLSLKFDSFAVIMLCVGIPTEWSVVEDLPEGPAVKIGENKDAMDGWFRLERVSDDEFNNYKLVFCPQQAEDDKCGDIGISIDHDDGTRRLVVSKNKPLVVQFQKLDKESL
[2]
  Binding with iron loaded prion or abeta40 templates: no detectable binding

B3: plasmin: serine protease (protein, UniProt P00747 20-580; P00747 581-810, looked up)
Plasmin heavy chain A: EPLDDYVNTQGASLFSVTKKQLGAGSIEECAAKCEEDEEFTCRAFQYHSKEQQCVIMAENRKSSIIIRMRDVVLFEKKVYLSECKTGNGKNYRGTMSKTKNGITCQKWSSTSPHRPRFSPATHPSEGLEENYCRNPDNDPQGPWCYTTDPEKRYDYCDILECEEECMHCSGENYDGKISKTMSGLECQAWDSQSPHAHGYIPSKFPNKNLKKNYCRNPDRELRPWCFTTDPNKRWELCDIPRCTTPPPSSGPTYQCLKGTGENYRGNVAVTVSGHTCQHWSAQTPHTHNRTPENFPCKNLDENYCRNPDGKRAPWCHTTNSQVRWEYCKIPSCDSSPVSTEQLAPTAPPELTPVVQDCYHGDGQSYRGTSSTTTTGKKCQSWSSMTPHRHQKTPENYPNAGLTMNYCRNPDADKGPWCFTTDPSVRWEYCNLKKCSGTEASVVAPPPVVLLPDVETPSEEDCMFGNGKGYRGKRATTVTGTPCQDWAAQEPHRHSIFTPETNPRAGLEKNYCRNPDGDVGGPWCYTTNPRKLYDYCDVPQCAAPSFDCGKPQVEPKKCPGR
Plasmin light chain B: VVGGCVAHPHSWPWQVSLRTRFGMHFCGGTLISPEWVLTAAHCLEKSPRPSSYKVILGAHQEVNLEPHVQEIEVSRLFLEPTRKDIALLKLSSPAVITDKVIPACLPSPNYVVADRTECFITGWGETQGTFGAGLLKEAQLPVIENKVCNRYEFLNGRVQSTELCAGHLAGGTDSCQGDSGGPLVCFEKDKYILQGVTSWGLGCARPNKPGVYVRVSRFVTWIEGVMRNN
modifications: Plasmin
notes: serine protease
[3]
  Degradation of proteins bound to the aggregates: degraded

B4: proteinase K: serine protease (protein, UniProt P06873 106-384, looked up)
Proteinase K: AAQTNAPWGLARISSTSPGTSTYYYDESAGQGSCVYVIDTGIEASHPEFEGRAQMVKTYYYSSRDGNGHGTHCAGTVGSRTYGVAKKTQLFGVKVLDDNGSGQYSTIIAGMDFVASDKNNRNCPKGVVASLSLGGGYSSSVNSAAARLQSSGVMVAVAAGNNNADARNYSPASEPSVCTVGASDRYDRRSSFSNYGSVLDIFGPGTSILSTWIGGSTRSISGTSMATPHVAGLAAYLMTLGKTTAASACRYIADTANKGDLSNIPFGTVNLLAYNNYQA
[3]
  Degradation of proteins bound to the aggregates: degraded
